In patent US20240043528A1, “NANOBODY-OGA FUSIONS AND USES THEREOF” (President and Fellows of Harvard College, priority 2020, published 2024):

System: O-GlcNAcylated proteome
Assay: Quantitative TMT mass spectrometry of enriched O-GlcNAcylated proteome
Format: cell-based, human
Details: co-expression of GFP-Sp1, versus N2(D174N)+C3, n=4
Description: Purification of GalT1 (Y289L) enzyme and labeling of O-GlcNAcylated proteins with GalNAz were performed according to the procedure of Hsieh-Wilson and co-workers (Thompson, J. W., Griffin, M. E. & Hsieh-Wilson, L. C. Methods for the Detection, Study, and Dynamic Profiling of O-GlcNAc Glycosylation. Methods Enzymol. 2018, 598, 101-135). Briefly, cell samples in 6-well plates or 15-cm dishes were harvested and washed by PBS once. The lysis buffer (PBS with 2% SDS) was added into cell pellets and heated for 5 min at 95° C., followed by the sonication to sheer DNA. Protein concentrations were determined by BCA assay. Cell lysates were reduced and alkylated with 25 mM DTT at 95° C. for 5 min and 50 mM iodoacetamide at room temperature for 1 h respectively. Proteins were precipitated by the methanol/chloroform solution (aqueous phase:CH3OH:CHCl3=4:4:1) and resuspended in 1% SDS, 20 mM HEPES (pH 7.9) buffer with a concentration of 3.75 mg/mL. For 150 μg proteins, H2O (49 μL), 2.5×GalT labeling buffer (80 μL, final concentrations: 50 mM NaCl, 20 mM HEPES, 2% NP-40, pH 7.9), 100 mM MnCl2 (11 μL), 500 μM UDP-GalNAz (10 μL), 2 mg/mL GalT1 (Y289L) (10 μL) were added into cell lysates orderly. […]
For quantitative proteomics, after reaction with Biotin-Alkyne probe, proteins were precipitated and resuspended in 400 μL PBS containing 2% SDS. […]

B1: split OGA (N2+C3): split OGA fragments N2 and C3 without nanobody (protein)
chain 1: MEQKLISEEDLAIAMVQKESQATLEERESELSSNPAASAGASLEPPAAPAPGEDNPAGAGGAAVAGAAGGARRFLCGVVEGFYGRPWVMEQRKELFRRLQKWELNTYLYAPKDDYKHRMFWREMYSVEEAEQLMTLISAAREYEIEFIYAISPGLDITFSNPKEVSTLKRKLDQVSQFGCRSFALLFDDIDHNMCAADKEVFSSFAHAQVSITNEIYQYLGEPETFLFCPTEYCGTFCYPNVSQSPYLRTVGEKLLPGIEVLWTGPKVVSKEIPVESIEEVSKIIKRAPVIWDNIHANDYDQKRLFLGPYKGRSTELIPRLKGVLTNPNCEFEANYVAIHTLATWYKSNMNGVRKDVVMTDSEDSTVSIQIKLENEGSDEDIETDVLYSPQMALKLALTEWLQEFGVPHQYSSR
chain 2: MAYPYDVPDYAAIAEKPLYTAEPVTLEDLQLLADLFYLPYEHGPKGAQMLREFQWLRANSSVVSVNCKGKDSEKIEEWRSRAAKFEEMCGLVMGMFTRLSNCANRTILYDMYSYVWDIKSIMSMVKSFVQWLGCRSHSSAQFLIGDQEPWAFRGGLAGEFQRLLPIDGANDLFFQPP
For B1, the “global O-GlcNAc proteome versus inactive form” value was “no significant difference from that of the inactive form”.
